Measured values taken from US20150139996A1.
Blank lines part the entries; values can stand above or below the substance they belong to.

Assays:
[1] = molecular target: IgG1 heavy chain with CH3 construct 74 (L351D, Y349D) (human) [IgG part: P01857]; assay: native MS; combination 10 co-expressed (A: VH MF1337, B: VH MF1122)
[2] = molecular target: IgG1 heavy chain with CH3 construct 74 (L351D, Y349D) (human) [IgG part: P01857]; assay: SDS-PAGE of protein A-purified supernatant; construct expressed alone
[3] = molecular target: IgG1 heavy chain with CH3 construct 77 (L351R) (human) [IgG part: P01857]; assay: native MS; combination 16 co-expressed (A: VH MF1337, B: VH MF1122)
[4] = molecular target: IgG1 heavy chain with CH3 construct 77 (L351R) (human) [IgG part: P01857]; assay: SDS-PAGE of protein A-purified supernatant; construct expressed alone
[5] = molecular target: IgG1 heavy chain with CH3 construct 77 (L351R) (human) [IgG part: P01857]; assay: native MS; combination 1 co-expressed (A: VH MF1337, B: VH MF1122)
[6] = molecular target: IgG1 heavy chain with CH3 construct 80 (L351E) (human) [IgG part: P01857]; assay: native MS; combination 14 co-expressed (A: VH MF1337, B: VH MF1122)
[7] = molecular target: IgG1 heavy chain with CH3 construct 79 (T366R) (human) [IgG part: P01857]; assay: as above
[8] = molecular target: IgG1 heavy chain with CH3 construct 79 (T366R) (human) [IgG part: P01857]; assay: SDS-PAGE of protein A-purified supernatant; construct expressed alone
[9] = molecular target: IgG1 heavy chain with CH3 construct 2 (K392D, K409D) (human) [IgG part: P01857]; assay: native MS; transfection C: vector V alone (fibrinogen VH, construct 2)
[10] = molecular target: IgG1 heavy chain with CH3 construct 2 (K392D, K409D) (human) [IgG part: P01857]; assay: native MS; transfection D: vector VI alone (tetanus VH, construct 2)
[11] = molecular target: IgG1 heavy chain with CH3 construct 2 (K392D, K409D) (human) [IgG part: P01857]; assay: SDS-PAGE of protein A-purified supernatant; construct expressed alone
[12] = molecular target: IgG1 heavy chain with CH3 construct 6 (T366W) (human) [IgG part: P01857]; assay: native MS; transfection P: vector IX alone (tetanus VH, construct 6)
[13] = molecular target: IgG1 heavy chain with CH3 construct 6 (T366W) (human) [IgG part: P01857]; assay: SDS-PAGE of protein A-purified supernatant; construct expressed alone
[14] = molecular target: IgG1 heavy chain with CH3 construct 80 (L351E) (human) [IgG part: P01857]; assay: native MS; combination 13 co-expressed (A: VH MF1337, B: VH MF1122)
[15] = molecular target: IgG1 heavy chain with CH3 construct 80 (L351E) (human) [IgG part: P01857]; assay: SDS-PAGE of protein A-purified supernatant; construct expressed alone
[16] = molecular target: IgG1 heavy chain with CH3 construct 3 (K392D, K409D, K439D) (human) [IgG part: P01857]; assay: native MS; transfection F: vector VIII alone (tetanus VH, construct 3)
[17] = molecular target: IgG1 heavy chain with CH3 construct 3 (K392D, K409D, K439D) (human) [IgG part: P01857]; assay: SDS-PAGE of protein A-purified supernatant; construct expressed alone
[18] = molecular target: IgG1 heavy chain with CH3 construct 3 (K392D, K409D, K439D) (human) [IgG part: P01857]; assay: native MS; transfection E: vector VII alone (fibrinogen VH, construct 3)
[19] = molecular target: IgG1 heavy chain with CH3 construct 7 (T366S, L368A, Y407V) (human) [IgG part: P01857]; assay: native MS; transfection Q: vector X alone (thyroglobulin VH, construct 7)
[20] = molecular target: IgG1 heavy chain with CH3 construct 7 (T366S, L368A, Y407V) (human) [IgG part: P01857]; assay: SDS-PAGE of protein A-purified supernatant; construct expressed alone
[21] = molecular target: IgG1 heavy chain with CH3 construct 73 (L351D, Y349E, L368E) (human) [IgG part: P01857]; assay: native MS; combination 6 co-expressed (A: VH MF1337, B: VH MF1122)
[22] = molecular target: IgG1 heavy chain with CH3 construct 73 (L351D, Y349E, L368E) (human) [IgG part: P01857]; assay: SDS-PAGE of protein A-purified supernatant; construct expressed alone
[23] = molecular target: IgG1 heavy chain with CH3 construct 78 (T366E) (human) [IgG part: P01857]; assay: as above
[24] = molecular target: IgG1 heavy chain with CH3 construct 78 (T366E) (human) [IgG part: P01857]; assay: native MS; combination 1 co-expressed (A: VH MF1337, B: VH MF1122)
[25] = molecular target: IgG1 heavy chain with CH3 construct 75 (L351D, Y349D, R355D) (human) [IgG part: P01857]; assay: native MS; combination 9 co-expressed (A: VH MF1337, B: VH MF1122)
[26] = molecular target: IgG1 heavy chain with CH3 construct 75 (L351D, Y349D, R355D) (human) [IgG part: P01857]; assay: SDS-PAGE of protein A-purified supernatant; construct expressed alone
[27] = molecular target: IgG1 heavy chain with CH3 construct 70 (L351E, Y349E) (human) [IgG part: P01857]; assay: native MS; combination 4 co-expressed (A: VH MF1337, B: VH MF1122)
[28] = molecular target: IgG1 heavy chain with CH3 construct 70 (L351E, Y349E) (human) [IgG part: P01857]; assay: SDS-PAGE of protein A-purified supernatant; construct expressed alone
[29] = molecular target: IgG1 heavy chain with CH3 construct 76 (L351K, L368K) (human) [IgG part: P01857]; assay: native MS; combination 15 co-expressed (A: VH MF1337, B: VH MF1122)
[30] = molecular target: IgG1 heavy chain with CH3 construct 76 (L351K, L368K) (human) [IgG part: P01857]; assay: SDS-PAGE of protein A-purified supernatant; construct expressed alone
[31] = molecular target: IgG1 heavy chain with CH3 construct 71 (L351D, Y349E) (human) [IgG part: P01857]; assay: native MS; combination 11 co-expressed (A: VH MF1337, B: VH MF1122)
[32] = molecular target: IgG1 heavy chain with CH3 construct 71 (L351D, Y349E) (human) [IgG part: P01857]; assay: native MS; combination 5 co-expressed (A: VH MF1337, B: VH MF1122)
[33] = molecular target: IgG1 heavy chain with CH3 construct 71 (L351D, Y349E) (human) [IgG part: P01857]; assay: SDS-PAGE of protein A-purified supernatant; construct expressed alone

% BB found [1]: 1%
% IgG [2]: 88.6%
% half molecule [2]: 11.4%
Substance: IgG1 heavy chain with CH3 construct 74 (L351D, Y349D) (from UniProt P01857-1)

% BB found [3]: 1%
% IgG [4]: 100%
% BB found [5]: 2%
Substance: IgG1 heavy chain with CH3 construct 77 (L351R) (from UniProt P01857-1)

% AB found [6]: 38%
% AA found [7]: 4%
% IgG [8]: 29.6%
% half molecule [8]: 70.4%
Substance: IgG1 heavy chain with CH3 construct 79 (T366R) (from UniProt P01857-1)

Full IgG found (%) [19]: 42%
Half molecules found (%) [19]: 58%
% IgG [20]: 58.6%
% half molecule [20]: 41.4%
Substance: IgG1 heavy chain with CH3 construct 7 (T366S, L368A, Y407V) (from UniProt P01857-1)

% BB found [31]: 0%
% BB found [32]: 1%
% IgG [33]: 79.7%
% half molecule [33]: 20.3%
Substance: IgG1 heavy chain with CH3 construct 71 (L351D, Y349E) (from UniProt P01857-1)

Further lines, the substance ahead of its results:

Substance: IgG1 heavy chain with CH3 construct 2 (K392D, K409D) (from UniProt P01857-1)
Full IgG found (%) [9]: 23%
Half molecules found (%) [9]: 77%
Full IgG found (%) [10]: 77%
Half molecules found (%) [10]: 23%
% IgG [11]: 30.9%
% half molecule [11]: 69.1%

Substance: IgG1 heavy chain with CH3 construct 6 (T366W) (from UniProt P01857-1)
Full IgG found (%) [12]: 18%
Half molecules found (%) [12]: 82%
% IgG [13]: 27.6%
% half molecule [13]: 72.4%

Substance: IgG1 heavy chain with CH3 construct 80 (L351E) (from UniProt P01857-1)
% BB found [6]: 36%
% BB found [14]: 10%
% IgG [15]: 100%

Substance: IgG1 heavy chain with CH3 construct 3 (K392D, K409D, K439D) (from UniProt P01857-1)
Full IgG found (%) [16]: 36%
Half molecules found (%) [16]: 64%
% IgG [17]: 24.5%
% half molecule [17]: 75.5%
Full IgG found (%) [18]: 24%
Half molecules found (%) [18]: 76%

Substance: IgG1 heavy chain with CH3 construct 73 (L351D, Y349E, L368E) (from UniProt P01857-1)
% BB found [21]: 1%
% IgG [22]: 79.3%
% half molecule [22]: 20.7%

Substance: IgG1 heavy chain with CH3 construct 78 (T366E) (from UniProt P01857-1)
% IgG [23]: 44.4%
% half molecule [23]: 55.6%
% AA found [24]: 3%
% AB found [5]: 81%

Substance: IgG1 heavy chain with CH3 construct 75 (L351D, Y349D, R355D) (from UniProt P01857-1)
% BB found [25]: 2%
% IgG [26]: 89.9%
% half molecule [26]: 10.1%

Substance: IgG1 heavy chain with CH3 construct 70 (L351E, Y349E) (from UniProt P01857-1)
% BB found [27]: 0%
% IgG [28]: 67.8%
% half molecule [28]: 32.2%

Substance: IgG1 heavy chain with CH3 construct 76 (L351K, L368K) (from UniProt P01857-1)
% BB found [29]: 2.5%
% IgG [30]: 56.6%
% half molecule [30]: 43.4%
